These results are taken from a protein production outcome set (Wang et al. 2014).

This data set can be described thus: label from the status in PepcDB records.

Take “PLKEQKVINTANIKTNSKLDLAEYENGLINIATQQFDTESHVLQLNQYIPEKLIDELVAKVEAPVLTNIIEQDYFGKQNSNELSLSGVMIGLAMSSSVSNEEAMSKGTEVAKQLIEAINKNDKYNKSPITFAIFKQESTSSLKNGTYIASATVQKNDTNLGNWSTIDEKSYSYPSDEFTQAHGEDNTKINNFAKEIKGFSNGDFIPVNAKVSYKKDQMDTLNMNIVIKYNGKTELMALTQLAAQGMLDKLPKDAKVQLQIKSESKIEAVIIKEKNSDKPFV”: the protein production entry is on record as “failed”.

For “PLKRSLPPDTAITKTDRVTVKGEEVPYEVTTGTQPVYGDDDTAVASLHYTYYRRSDVDDRSGRPLMISFNGGPGSGSLWMHLGYTSPKHLLISDEGYPVQPYGVEDNNQSIIDVADIVYVNPVNTGFSRVIDDDTDAEQFFGVNADVDYLADWIDTFISRHGRWRSPKYLIGESYGTTRVAGLAGELQNSHWTYLNGVILVSPTGLGMEPAGPSPRSEALKLPYYAATAWYHEQLPDALQSRDLQALLSEVEDYTIEEYIPAVTRGGFVEDARRQAVAQQVARYSGLSEPFVLDHNLAVPADAFWKELLQDEGRTVGRLDSRYEGIDVTNAGSEYDYPAELTAWNHAFTPAINHYLRDDLGFTTDLQYNTFGNVYPWDETENNTGAQLREAMAQNPYLHVMVQSGYYDGATDYFSAKYVMWNLGTRETMRDRLRFEGYRSGHMMYLRSEDLATSNEDIRTFIEESIPDEGTPARYGRNR”, the protein production result is “failed”.

With “PLPEGMQQQFEDTISRDAKQQPTWDRAQAENVRKILESVPPIVVAPEVLELKQKLADVANGKAFLLQGGDCAETFESNTEPHIRANVKTLLQMAVVLTYGASTPVIKMARIAGQYAKPRSSDLDGNGLPNYRGDIVNGVEATPEARRHDPARMIRAYANASAAMNLVRALTSSGTADLYRLSEWNREFVANSPAGARYEALAREIDSGLRFMEACGVSDESLRAADIYCSHEALLVDYERSMLRLATDEEGNEELYDLSAHQLWIGERTRGMDDFHVNFASMISNPIGIKIGPGITPEEAVAYADKLDPNFEPGRLTIVARMGHDKVRSVLPGVIQAVEASGHKVIWQSDPMHGNTFTASNGYKTRHFDKVIDEVQGFFEVHRALGTHPGGIHIEFTGEDVTECLGGAEDITDVDLPGRYESACDPRLNTQQSLELAFLVAEMLRN”, the protein production result is listed as “failed”.

Take “PNARSQPSKTLFVKGLSEDTTEETLKESFDGSVRARIVTDRETGSSKGFGFVDFNSEEDAKAAKEAMEDGEIDGNKVTLDWAKPKGEGG”: the protein production entry is “not failed”.

As for “PRAAGHSEEVLEREASFSLTTIDGEVISLNNVGGDVVILWFMAAWCPSCVYMADLLDRLTEKYREISVIAIDFWTAEALKALGLNKPGYPPPDTPEMFRKFIANYGDPSWIMVMDDGSLVEKFNVRSIDYIVIMDKSSNVLYAGTTPSLGELESVIKSVQGG”, the protein production result is recorded as “not failed”.

Take “PRPDKCPCEVYHLMKNCWETEASFRPTFENLIPILKTVHEKYQGQAPSVFSVC”: the protein production entry was “failed”.

As for “PTWMVVNPVAGGGKWLQYEQHVIRELTKKYRLSIRQTDETTSAESLALQAKQSGVNQVIVSGGDGTVTEVASQLVGTDIQLGIIPLGTANALCHVLYGIGMKLSPVEKACEAILAGHCQRIDTAECNQ”, the protein production result is “failed”.

As for “PVEEVMPVLEEKERSASYKPVFVTEITDDLHFYVQDVETGTQFQKLMENMRNDIASHPPVEGSYAPRRGEFCIAKFVDGEWYRARVEKVESPAKIHVFYIDYGNREVLPSTRLGTLSPAFSTRVLPAQATEYAFAFIQVPQDDDARTDAVDSVVRDIQNTQCLLNVEHLSAGCPHVTLQFADSKGDVGLGLVKEGLVMVEVRKEKQFQKVITEYLNAQESAKSARLNLWRYGDFRADDADEFGYSR”, the protein production result is listed as “not failed”.

Turning to PVGWQCPGCTFINKPTRPGCEMCCRARPEAYQVPASYQP, the protein production entry was “not failed”.

“PVNQVQSSVSWPQNGSLNSVSAPLMSYTPISFDAKIPVASVDKLRKDQDLILGTLPANSEDAGARGLFVRANDDGLQITSHGELVLDLSKRELAQLPADATIAISATEDETTAGIEGDDSTTETVERDVRPIIMGIYTELESNAAADLLNAGLNAHVEINSRFTSSPTLAKYAS”: the protein production result is “not failed”.

As to “PWQHFIIGSLFGWVHKETKLRRFKEALIFMGRKNGKTTTISGVANYAVSQDGENGAEIHLLANVMKQARILFDESKAMIKASPKLDKNFRTLRDEIHYDATISKIMPQASDSDKLDGLNTHMGIFDEIHEFKDYKLISVIKNSRAARLQPLLIYITTAGYQLDGPLVDMVEAGRDTLDQIIEDERTFYYLASLDDDDDINDSSNWIKANPNLGVSINLDEMKEEWEKAKRTPAERGDFITKRFNIFANNDEMSFIDYPTLQKNNEIVSLEELEGRPCTIGYDLSETEDFTAACATFALDNGKVAVLSHSWIPKHKVEYSNEKIPYREWEEDGLLTVQDKPYIDYQDVLNWIIKMNEHYVVEKITYDRANAFKLNQELKNYGFETEETRQGALTLSPALKDLKEMFLDGKIIFNNNPLMKWYINNVQLKLDRNGNWLPSKQSRYRKIDGFAAFLNTYTDIMNKVVSDKGEGNIEFISIKDIMR”, the protein production entry was “failed”.

Take “PWQPPADLSGLSIEEVSKSLRFIGLSEDVISFFVTEKIDGNLLVQLTEEILSEDFKLSKLQVKKIMQFING”: the protein production result was “not failed”.

For the sequence “PYNKNGFKVGMKLEGVDPEHQSVYCVLTVAEVCGYRIKLHFDGYSDCYDFWVNADALDIHPVGWCEKTGHKLHPPKGYKEEEFNWQTYLKTCKAQAAPKSLFENQNITVIPSGF”, the protein production entry was “not failed”.

Regarding “QADAGPDKELTLPVDSTTLDGSKSSDDQKIISYLWEKTQGPDGVQLENANSSVATVTGLQVGTYVFTLTVKDERNLQSQSSVNVIVKEE”, the protein production result is listed as “not failed”.

On to “QALDVLDDAGRKVLFTEARTANTFAEVAVADDELAMIWELARWSPSAANGQPLRVLFVRTPEGKERLGRHLDEGNRAKTLSAPAVAILAYDVDFHEQMPTVFPARGEMLRAAFADQTEKRESLAAYNSALQTGVFLLAVRAAGLAAGPMAGFDRAGVDEEFFAGTSWRSHLVVNIGHPGADPWFPRLPRVPVEDAVAYA”, for which the protein production entry is on record as “failed”.

In the case of “QALPEKALDSFIVTGLSKRGWTTWLTAIVDSRVVAIAPFVIDLLDTRAALEHMYQSYGGNWPIAFTPYYLDEVDKKLDTASFAKLMQIIDPLQYMGTEYQSRLSIPKYIINASGDDFYVPDNTDFYYDKLPGEKALRVAPNASHSGIKAFSEQSLISFVNR”, the protein production result is reported as “failed”.

“QCPASVEKAIISSFSPVLNEPMLDYIDKAQVYLAAREKRKIGSLLNDTVGKHLPRLFKLYNYKHLIGLAEHEYGQIDFHISQIRTLSASNYVERFSSIKIPVLFINGEKDEYTTVEDARMFSNYIAKSSFNVVPDTGHFLDLESKAAWHHSQKTALSFLGT”: the protein production result was “not failed”.

In the case of “QEIASRLPYFCSGCPHNSSTKVPDGSRAYAGIGCHYMVQWMDRNTQGFTHMGGEGANWIGEAPFSKTKHVFQNLGDGTYNHSGVQAIRAALAAGTNITYKILFNDAVAMTGGQENEGDLSAPRIVAELKAMGVKELAVVYDDKEDVDRSQFPSGIPFHERAELMQVQKRFREIAGVSAIVYIQTCAAEKRRRRKRGTFPDPDKRAFINTDICEGCGDCGVQSNCVSIVPKETELGRKRAIDQSSCNKDFSCVKGFCPSFVTVQGAKIRKEATAEIDL”, the protein production result is “failed”.

With “QEIKRYADEHEERYGRFPKTLIFAVQDLANSSSHADQIVDQARDIFGRGDSFVQKITGKVDRPLQRIREFRNRKEPGIAVTVDLLSTGVDVPDIEYIVFLRSMKSRILFEQMIGRGTRKGEH”, the protein production entry is recorded as “failed”.

Regarding “QKRLRRKLHEYQKNIPPQVRAARLADDINAKLGRPLQYQNRGRIEYLITLNGPEPHEYRNSPIDYQHYIDKQLKPVADAILPFIGTDFETLSAPQMGLF”, the protein production result is given as “failed”.

Consider “QMNTVFIKNEGVTEGEIATIGEHTAEISGVSTGTDWTRDYSQSGALRSLLGTVSTEKQGLPAEEVDEYLKKGYARNDRVGTSYLEKQYEDVLQGKKAKSEVVLDNNGKIVSQTPISKGEKGSNLKLTID”, for which the protein production entry is given as “failed”.

As for “QQKNMENKTLNENIPEMIISLEKEALASTDPMAFVELSDTDVIYFDPSLETKIEGLEQLRTYYKGMQLPPADHFDMIRPVVQVAQNIAVLTFNLDSYLSDKVIKWNCTEVYRRNPDNQWKIIQTHWSYVKPLD”, the protein production result is recorded as “not failed”.

For “QSGMKAELLDHGTAPVPSELAEYFPQVPEVALYHRLRCDEKTGEPTNHARNYVRPELAGRIDLDDLARWPMTKVLRDVVGMDISRITDTVEARLADPETARLLEVPLLSPILHYTGITYDLEGRVLDVAVIHYRGDRFSFTVTLDAT”, the protein production result was “failed”.

Turning to “QSKTATVFLHGYNGGAYSTNYLIRKAEKAGAAQKALVVHVYKNGVMAFKGYWQKSIKNPMVQVVFQDNHASQKAQIYWLHQVLVQLKAKYGVKAYNAVGHSLGANDIVNQALKYGHDKRLPTLNKIVTIGGPFDGLTGFLSTQTEATVRRLDVKPSRFTKHFSEMLKYRHNFPDNVKLLNVYGDTNTGYNNDGFVGVASARSIRYLLRGKLTQYQEAFYSGEQAAHCALNQNPSVAHKMIAFLW”, the protein production result is listed as “failed”.

For the sequence “QSLRSFQKQNEDNDKRQQILRSINVNVSSSEAETKYNELIKEAFLVNENGEKVEGDAFATDVVKAATEHQYPVFVANVDGQPKYIMALHGAGLWGPLWGYISVDSDKNTIYGADFSHQGETPGLGAEISKPVFSNEFKGKKIFMSGEFKSVAVVKPGKSVAGQDYVDGISGGTITSKGVDEMLFNSLSGYVKFLTSQN”, the protein production entry is on record as “not failed”.

“QTVAQGKLTLSVPKAVGRFVIHPLMMAFFHRYPQVDVCLRLEDRPLDFIDDGIDLALRITDTPSPGLHGKPLMPIRHVICATEAYLQQHGTPYTPQDLRSHSCISLGETPADARWKFRREGKTETVQTYGRYAANHTAVR”: the protein production entry is “failed”.

For the sequence “QVPILHRDADFLLRALQPDDFVRTSRYENANREHLAPWEPLRDPGYFSVDNARARTLLQVASMDEGEALLLLLLDPDDGEVLGRCSYTNIVRGVFQACHLGFSLAAAAQGRGLMARALRVANRYCFEQLGLHRIMASHLPRNARSERLLESLGFEKEGYARAYLKIAGVWEDHVLRALVDAPR”, the protein production result is “not failed”.

With “RAAASPITITVGDRALELSVLRPAAPKGVVVFSHGAGGTAEAYATLLEGWRQAGFLVVAPLHVDSQKHPRKTAYNLRSSFPLRIADVGAAAGWAAAAAPGLPLAYAGHSYGSLMSLMRGGALEGMIPARDPNAKAVLCFSSPGTIQGLMGPATFQTLTTPTMVLTGELDLVPGMVADWRDHLRAVEESPAGEKYAWIGKSVDHGLAHHPDNPAFAEASALSVTFLKAQLLGD”, the protein production result is “failed”.

As to “RAQTFEAVTPEYSRYAGQAFGSFQAMLSDLPDELGETIPNFHNMEFRLGQLHDALKTDPVGRAEEVRYYIDEIEKRAEEMCKAERLHREGKLPKRVCHCDTKVNNMLFDEDGHVLCVIDLDTVMPNFIFSDYGDFLRTGANTGEEDDKDLDHVNFDMEIFKAFTEGYLKGASSFLTDVEIENLPYAAALFPYMQCVRFLTDYINGDTYYKIKYPEHNLVRTRAQFRLLQSVEDCMPQMQAFIDQCLRY”, the protein production result is reported as “not failed”.

For the sequence “RDRPAGLLRINATLGFGRTHLAPAIARFRRIHPAVEVQLLLTDAPLNLVEEGIDLGIRFGAPPFGRMVMRLLQRNRRFLCAAPSYLEARGVPQSLTDLQQHSCIVLRQDHDAYDVW”, the protein production result was “failed”.
